Measurements taken from paper PMC11514458.

What was measured:
RAD51 [1] = target: T1, RAD51 (UniProt Q06609 1-339); test: stopped-flow fluorescence (global fit); initial weak binding step; 2 mM ATP, 5 mM Mg2+; EMSA: 20 mM Tris-HCl pH 7.5, 2 mM MgCl2, 2 mM ATP, 37 C, 20 nM DNA, glutaraldehyde fixation; stopped-flow: 25 mM Tris-HCl pH 7.5, 5 mM MgCl2, 50 mM KCl, 2 mM ATP, 0.5 mM EDTA, 10% glycerol, 37 C; BLI: 50 mM Tris-HCl pH 7.5, 2 mM ATP, 50 mM KCl, 5 mM MgCl2, 0.05% Tween 20, room temperature; conditions: protein: recombinant; chain copies: 10; label: Cy3 at 3' or 5'
BCDX2 complex [2] = target: T2, BCDX2 complex (human, UniProt O15315;O43502;O75771;O43543 1-384;1-376;1-328;1-280); test: stopped-flow fluorescence (amplitude, A1); Kd,1 initial complex; ATP, Mg2+; EMSA: 20 mM Tris-HCl pH 7.5, 2 mM MgCl2, 2 mM ATP, 37 C, 20 nM DNA, glutaraldehyde fixation; stopped-flow: 25 mM Tris-HCl pH 7.5, 5 mM MgCl2, 50 mM KCl, 2 mM ATP, 0.5 mM EDTA, 10% glycerol, 37 C; BLI: 50 mM Tris-HCl pH 7.5, 2 mM ATP, 50 mM KCl, 5 mM MgCl2, 0.05% Tween 20, room temperature; conditions: protein: recombinant; tags: Strep-tag and His-tag (XRCC2 N-terminal His); copies: 1;1;1;1; label: Cy3 at 3' or 5'
T2 sequence 1: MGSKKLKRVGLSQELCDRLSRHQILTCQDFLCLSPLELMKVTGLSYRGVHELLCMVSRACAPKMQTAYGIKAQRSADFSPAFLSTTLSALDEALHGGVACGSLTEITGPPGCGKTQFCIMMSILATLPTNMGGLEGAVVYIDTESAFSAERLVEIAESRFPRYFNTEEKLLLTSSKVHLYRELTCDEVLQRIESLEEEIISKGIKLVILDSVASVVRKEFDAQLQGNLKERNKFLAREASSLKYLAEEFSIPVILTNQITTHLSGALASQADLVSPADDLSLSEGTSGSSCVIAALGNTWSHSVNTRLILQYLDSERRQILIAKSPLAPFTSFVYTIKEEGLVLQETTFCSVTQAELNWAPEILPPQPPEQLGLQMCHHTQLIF
T2 sequence 2: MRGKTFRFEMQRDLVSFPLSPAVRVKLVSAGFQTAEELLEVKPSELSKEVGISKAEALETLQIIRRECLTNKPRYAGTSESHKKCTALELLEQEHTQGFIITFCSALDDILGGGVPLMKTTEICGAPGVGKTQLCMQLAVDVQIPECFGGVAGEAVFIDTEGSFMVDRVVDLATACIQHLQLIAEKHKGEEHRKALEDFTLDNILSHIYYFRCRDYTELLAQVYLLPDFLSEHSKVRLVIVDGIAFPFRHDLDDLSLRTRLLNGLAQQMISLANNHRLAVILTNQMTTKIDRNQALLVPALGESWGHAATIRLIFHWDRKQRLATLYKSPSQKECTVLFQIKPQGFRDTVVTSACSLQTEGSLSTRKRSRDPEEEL
T2 sequence 3: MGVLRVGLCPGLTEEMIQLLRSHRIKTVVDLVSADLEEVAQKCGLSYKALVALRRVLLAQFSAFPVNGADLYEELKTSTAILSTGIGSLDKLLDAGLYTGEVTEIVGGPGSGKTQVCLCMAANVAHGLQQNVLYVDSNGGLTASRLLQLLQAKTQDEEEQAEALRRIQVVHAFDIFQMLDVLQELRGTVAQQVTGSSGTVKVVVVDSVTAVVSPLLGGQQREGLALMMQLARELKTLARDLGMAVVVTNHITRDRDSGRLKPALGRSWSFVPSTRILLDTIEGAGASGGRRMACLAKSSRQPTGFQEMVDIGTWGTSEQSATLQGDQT
T2 sequence 4: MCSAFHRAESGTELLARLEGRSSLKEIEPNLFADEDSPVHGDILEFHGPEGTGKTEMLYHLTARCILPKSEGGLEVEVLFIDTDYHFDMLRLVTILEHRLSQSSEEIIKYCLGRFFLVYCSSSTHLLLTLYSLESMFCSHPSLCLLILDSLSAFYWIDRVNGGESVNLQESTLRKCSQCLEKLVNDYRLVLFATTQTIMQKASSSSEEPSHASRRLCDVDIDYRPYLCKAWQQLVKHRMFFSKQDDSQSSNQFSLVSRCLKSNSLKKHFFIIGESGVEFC

BCDX2 complex [3] = target: T2, BCDX2 complex; test: stopped-flow fluorescence (global fit); initial complex k1/k-1; 2 mM ATP, 5 mM Mg2+; EMSA: 20 mM Tris-HCl pH 7.5, 2 mM MgCl2, 2 mM ATP, 37 C, 20 nM DNA, glutaraldehyde fixation; stopped-flow: 25 mM Tris-HCl pH 7.5, 5 mM MgCl2, 50 mM KCl, 2 mM ATP, 0.5 mM EDTA, 10% glycerol, 37 C; BLI: 50 mM Tris-HCl pH 7.5, 2 mM ATP, 50 mM KCl, 5 mM MgCl2, 0.05% Tween 20, room temperature; conditions: protein: recombinant; tags: Strep-tag and His-tag (XRCC2 N-terminal His); copies: 1;1;1;1; label: Cy3 at 3' or 5'
RAD51;BCDX2 complex = RAD51;BCDX2 complex (human?;human, UniProt Q06609;O15315;O43502;O75771;O43543 1-339;1-384;1-376;1-328;1-280, |); test: stopped-flow fluorescence (global fit); RAD51 binding in presence of BCDX2; ATP, Mg2+; EMSA: 20 mM Tris-HCl pH 7.5, 2 mM MgCl2, 2 mM ATP, 37 C, 20 nM DNA, glutaraldehyde fixation; stopped-flow: 25 mM Tris-HCl pH 7.5, 5 mM MgCl2, 50 mM KCl, 2 mM ATP, 0.5 mM EDTA, 10% glycerol, 37 C; BLI: 50 mM Tris-HCl pH 7.5, 2 mM ATP, 50 mM KCl, 5 mM MgCl2, 0.05% Tween 20, room temperature; conditions: protein: recombinant;recombinant; tags: ;Strep-tag and His-tag (XRCC2 N-terminal His); copies: 1;1;1;1;1; label: Cy3 at 3' or 5'
BCDX2 complex [4] = target: T2, BCDX2 complex; test: stopped-flow fluorescence (total amplitude); Kd,net two-step; ATP, Mg2+; EMSA: 20 mM Tris-HCl pH 7.5, 2 mM MgCl2, 2 mM ATP, 37 C, 20 nM DNA, glutaraldehyde fixation; stopped-flow: 25 mM Tris-HCl pH 7.5, 5 mM MgCl2, 50 mM KCl, 2 mM ATP, 0.5 mM EDTA, 10% glycerol, 37 C; BLI: 50 mM Tris-HCl pH 7.5, 2 mM ATP, 50 mM KCl, 5 mM MgCl2, 0.05% Tween 20, room temperature; conditions: protein: recombinant; tags: Strep-tag and His-tag (XRCC2 N-terminal His); copies: 1;1;1;1; label: Cy3 at 3' or 5'
RAD51 [5] = target: T1, RAD51; test: stopped-flow fluorescence (Hill); Kd,1; ATP, Mg2+; EMSA: 20 mM Tris-HCl pH 7.5, 2 mM MgCl2, 2 mM ATP, 37 C, 20 nM DNA, glutaraldehyde fixation; stopped-flow: 25 mM Tris-HCl pH 7.5, 5 mM MgCl2, 50 mM KCl, 2 mM ATP, 0.5 mM EDTA, 10% glycerol, 37 C; BLI: 50 mM Tris-HCl pH 7.5, 2 mM ATP, 50 mM KCl, 5 mM MgCl2, 0.05% Tween 20, room temperature; conditions: protein: recombinant; chain copies: 10; label: Cy3 at 3' or 5'
RAD51 [6] = target: T1, RAD51; test: stopped-flow fluorescence (global fit); RAD51 without BCDX2; ATP, Mg2+; EMSA: 20 mM Tris-HCl pH 7.5, 2 mM MgCl2, 2 mM ATP, 37 C, 20 nM DNA, glutaraldehyde fixation; stopped-flow: 25 mM Tris-HCl pH 7.5, 5 mM MgCl2, 50 mM KCl, 2 mM ATP, 0.5 mM EDTA, 10% glycerol, 37 C; BLI: 50 mM Tris-HCl pH 7.5, 2 mM ATP, 50 mM KCl, 5 mM MgCl2, 0.05% Tween 20, room temperature; conditions: protein: recombinant; chain copies: 10; label: Cy3 at 3' or 5'

T1 sequence (Q06609 whole entry): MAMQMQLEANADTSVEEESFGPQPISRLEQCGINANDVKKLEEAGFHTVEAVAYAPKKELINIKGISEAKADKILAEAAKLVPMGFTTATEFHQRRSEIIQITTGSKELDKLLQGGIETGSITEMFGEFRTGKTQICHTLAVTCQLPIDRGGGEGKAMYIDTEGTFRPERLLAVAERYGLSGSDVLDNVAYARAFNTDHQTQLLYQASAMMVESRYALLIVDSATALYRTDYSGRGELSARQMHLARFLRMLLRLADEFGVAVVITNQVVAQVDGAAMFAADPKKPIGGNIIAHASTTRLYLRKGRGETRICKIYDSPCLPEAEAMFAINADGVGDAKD
Chain of RAD51;BCDX2 complex (Q06609 whole entry, one chain of several): as the sequence (Q06609 whole entry) above

TTTTTTTTTTTTTTTTTTTTTTTTTTTTTTTTTTTTTTTTTTT (ssDNA) [Cy3-dT43] showed a Ka (RAD51 [1]) of 0.09 µM⁻¹, a Kd (BCDX2 complex [2]) of 310 ± 50 nM and a Ka (BCDX2 complex [3]) of 3.1 µM⁻¹. For the same binder, the Ka (RAD51;BCDX2 complex) was 0.064 nM⁻¹, the Kd (BCDX2 complex [4]) was 220 ± 20 nM and the Kd (RAD51 [5]) was 1600 ± 200 nM. It also gave a Ka (RAD51 [6]) of 0.026 nM⁻¹.
